Laboratory results as given in the DeepSol protein solubility set.

Assay: soluble on expression in E. coli; label from the status in PepcDB or PDB records

Sequence | soluble on expression in E. coli
MGSDKIHHHHHHMIRIGIDVGGTNTDAVVMDGTQVVAGVKSATTADVMSGVVNALKDVLAASRMAASAVDVVMIGTTHFTNAVVQRRDLAPTAAVRLGLPATASLPPMVDWPEDLKTAIGNHAWLAHGGNEFDGRVISPLNEEELLGIAAEIKVRGINSIAITSVLSPVSNEFEKRAAEIFAKALPGAHITLSSDIGRIGLLERENAAIMNACLRDLSAHVIEAFRKAIAETGIRGRFFLTQNDGTLMDAAFAEKFPVLTFASGPTNSMRGAAFLSGVDDAIVVDIGGTTSDVGSLQNGFPRQATVAVEVGGVRTNFRMPDVFSIGLGGGSLVVDGEHGVKVGPTSVGYRINTEALIFGGETLTTTDITVAAGNAELGDKARVAQLPKDLLDRTQAKILSMLEDCVERSRLSPDPLPVIVVGGGSILVNGPIGGLEVIKPNYFGVANAVGAAIAQVSGEIDRVYALAEIGRDQALDDAKARAIDAAVAAGASRDSVEIVDVEDVPLAYLPGNATRVRVKAVGELHVA | not soluble
MARHKCQDCGKTFDLKRYLTKHELRMHKNVVKSKNDRSASDPLKCSMCDKVFPRLSHLQRHQMTHLNVRNYSCTFCEEKFVQKSHLTRHVSRKHSNAPGVEVDWTACDKCGQLFKTTYEMRIHRQTYHELHKCKQCQEVIEAGSDGLRKHHMQCRKYSNVCDECGASFSRPADLVSHETSCLKKFAFVCKPCDSYFRQRVQLDRHIKKAHFHPTKCSKCEQISDTPVQNSRHSLECVKVIICGYCSLKNPDKNHVATVHWHRLKRAVSKSVTIRHKLKDAPIADKDVPSSSGQSSLEEEILDDSEDDLEDTGEGLSNREQFKNRDIKRENNLEEVKSSTDNRDEEDSLFNFPDTSTSQLDFCSTAFTEDDSFPGDYVTLSICPKNTDLSFDLRDRLPPELSELFPELEATSIVLLNKSIRCRMTVRVPVCIPKSSTQEAEMRKWLDMTVVLKDD | not soluble
MGSDKIHHHHHHMKHGGYPWKNGKPALDVKDFSVNLNPMGVPKFIEELINEAVKLKVYAYYPPQNLREIKGIIAEIYGVNEDLVGVFNGASEVISILDENFTVPQPNYSEYKFHSYYFAEEHEDEFVFELNPGRILTSNPNNPTGSLIKLDEIEEFLINEKNELILDESFIDISLAESATKLVNEFNNLTIINSFTKSLAIPGLRFGFSIGHKSKELEKRVPIWRINSITYYVISNLNPKEVRSFFVNSKIKVKEIYDKVDGVKKLFKMYKSYAPFFLVEFKIPTSLINDELIRRCKCYIRDASNFLGLRNTHARIALKNEVIELINNINEIISEKES | not soluble
METLIAISRWLAKQHVVTWCVQQEGELWCANAFYLFDAQKVAFYILTEEKTRHAQMSGPQAAVAGTVNGQPKTVALIRGVQFKGEIRRLEGEESDLARKAYNRRFPVARMLSAPVWEIRLDEIKFTDNTLGFGKKMIWLRDSGTEQA | soluble
MGSDKIHHHHHHMLDQIKAHLLDSINDIVSSANQFVLHPEKDFSRQSQLTMKTMIQAILTMGGNTLAKELLDLDLPVSQSAFVQRRYQIKHQAFKTLFRDITSKIPISDNLPILAVDGSDVILPRNRFDKTTSFQTGPHHTPYNLIHINALYTLEQEIYHDLRIQDNREVDERAAFIDMMKTSSFKQALVIMDRGYESYNVMAHCQERNWSYIIRIRDGNHSMKSGFNLPDTPCFDEAFDLNICRKQTNDMKELYRDFPNQYHFLPHNASFDFLLNSSRKSDPLQFYELHFRMVRLEIKPGFFETLVTNTDYSPEKLKELYAYRWGIETSFRDLKYSIGLTHFHAKKKEGILQEIYARFINFNVCKWLTSHVAIKTSKLKQTYKICFSDAVYACRKFLRNKLTSFQLETYIAKHLSIIRPNRTFQRKIKSKAPVSFTYRVT | not soluble
MSCINLPTVLPGSPSKTRGQIQVILGPMFSGKSTELMRRVRRFQIAQYKCLVIKYAKDTRYSSSFCTHDRNTMEALPACLLRDVAQEALGVAVIGIDEGQFFPDIMEFCEAMANAGKTVIVAALDGTFQRKPFGAILNLVPLAESVVKLTAVCMECFREAAYTKRLGTEKEVEVIGGADKYHSVCRLCYFKKASGQPAGPDNKENCPVPGKPGEAVAARKLFAPQQILQCSPAN | soluble
GSENIYTTLKFESMMQQRVIQIRSIPEEEYHELVSVQFKTDGGKYEKGEKQDLELSEKKTENGKDTESWGWNENQDSDEHDGWDEELDIDVDNVPIQVSVFVQSAAKVFTEFEQGCDTIGRSKVESIYLYKFNLLQTAFFAMVSEKVNDWTQLYKDVRYLYTENPKLLQLMELNSRRLDLNLNLIKKTIYKLVNDQLQELKDNERTPDWDITISSLLPYLKKTALPTLYKLEDNTILVALIRYIVHDLVIDNILHWRVISEKSSENLSEFIMLLLSGLEIPRLNLIETYRHSREKLGILSKILTAHLKDILEMFYEGEFFLFETDEIVQWIILLFADTPTRRDCIDEIRRVREEATD | soluble
MSLSSCEVLTSLGERMILIRGLTRVITFDDQERELEDADILIDGPKIVAVGKDLSDRSVSRTIDGRGMIALPGLINSHQHLYEGAMRAIPQLERVTMASWLEGVLTRSAGWWRDGKFGPDVIREVARAVLLESLLGGITTVADQHLFFPGATADSYIDATIEAATDLGIRFHAARSSMTLGKSEGGFCDDLFVEPVDRVVQHCLGLIDQYHEPEPFGMVRIALGPCGVPYDKPELFEAFAQMAADYDVRLHTHFYEPLDAGMSDHLYGMTPWRFLEKHGWASDRVWLAHAVVPPREEIPEFADAGVAIAHLIAPDLRMGWGLAPIREYLDAGITVGFGTTGSASNDGGNLLGDLRLAALAHRPADPNEPEKWLSARELLRMATRGSAECLGRPDLGVLEEGRAADIACWRLDGVDRVGVHDPAIGLIMTGLSDRASLVVVNGQVLVENERPVLADLERIVANTTALIPKNLEGHHHHHH | not soluble
AIAAAVKDSCGKGEMATGNGRRLHLGIPEAVFVEDVDSFMKQPGNETADTVLKKLDEQYQKYKFMELNLAQKKRRLKGQIPEIKQTLEILKYMQKKKESTNSMETRFLLADNLYCKASVPPTDKVCLWLGANVMLEYDIDEAQALLEKNLSTATKNLDSLEEDLDFLRDQFTTTEVNMARVYNWDVKRRNKDDSTKNKA | soluble
MKKIAIFGSRHKSEQGASIKALILKLEEAGTPLYIERKFLSFLKQDLDFHPAICGVIDTLPEHIDYVICMGGDGTFLRTAHQIGVSQIPVLGVNTGRLGFLTDVDCHEASELITRLLDGDFTIETRSLLEVTEDNGSSPSYALNEAAILKRETGSMIRVNACLNDDYLAAYDADGLVVATPSGSTAYSLSGNGPIIMPACRNFVLTPIAPHSLNMRPLVVPDDTVIRLEVDSRSRNYLLVLDGRTRTLPCDTSILLKRAPHTLRMIRLRPHSFAETLRRKLMWGAAVRLEHHHHHH | soluble
SNAMNYFELFGLPIQFELDGSLLSSQFRALQKRFHPDNFATASERDRLMAVQQAAQINDAYQTLKDPLRRAEYLLSLQGIEMNAEQQTLQDPMFLMEQMELREELESVTACADPEAALVAFDTKVTAMQRHYLAQLQGQLAQSEWLAAADQIRKLKFIAKLKNEVERVEDQLLG | soluble
MGSSHHHHHHSSGLVPRGSHMASMGRIESAFDLGFIRGMTFGFVGQHGTWGTDEARASMRALAEQPFNWVTLAFAGLMEHPGDPAIAYGPPVTVSDDEIASMAELAHALGLKVCLKPTVNCRDGTWRGEIRFEKEHGPDLESWEAWFGSYSDMMAHYAHVAKRTGCEMFCVGCEMTTAEPHEAMWRETIARVRTEYDGLVTYNCNHGREEHVRFWDAVDLISSSAYYPIDRWRDRVPVLREVAEAHEKPLFFMEVGCPSRSGSGACPWDYRHPGAVCLDEQARFYEAMFAAMPDEPWFKGYMLWEWPWKLYPREAASEDGSYCIYGKPAEDVVARAFSAIANR | soluble
MSLDRVTISHMADALGVTKSTVSRAMNGYPDISEATQLRVKRMAEKMGYQPLSHAQAIKTGRARSLGLVLQFSDHDAQRPFLAEFLAGLSAGAHTDGWTLTVAAADGHDELIETFRAILRDGKADGFILPRAMSTDPRVYLLRDAGVPFVLFGRQDKEEGCAWFDVLGEEAMCDAVLHLATLGHRRIGFINGGLQYAYARLRAAGFADGMQIAGLEMDDSLIADDAMTMESGAVAAARILDTTNPPTALVCAVDFAALGAYRAAADRGIIIGRDLSIIGYDGIPEGAFAHPPLTTFAVDNRAAGFALATLLIQRIKGEPLETLRRLVPATFVERASTGEGHHHHHH | not soluble
MGSDKIHHHHHHMNIPIKTLHYFLTLVETGNFTRAAEKSFITQPTLSKIIQRLEENLGQQLLHRNNQKIELTQAGILLENSAREILGQWHRLQEDLTNLSGLKSGHLRLGVCPMMSSLIIDLLTAFRQQYPGIELQMYEYGGFGCEQALLNNSLDIAFTALPTTHDIELANRALTRYPLLACLPKDHALAQQEAVTWQDFEAYPFILYNEDFSLAKLITRLSHKAGVQLNIAFRSGQWDFLATMVEAQMGVAILPEPICHKLQGSELVFKPIRPNLTWDLALIWRKDLPLTPAAQALLDLSEQAHLHP | not soluble
MGRIKQMTPNVMRLLKACFVEQIPDEVCDEFHLKKDTEHMILITKDGGMPISKIKPLSDSQVLSVLSQILLSLYIGKRELQFSHNDLNPGNLLISETKKKSISYKKDGKSIKIKSHGRFLTLIDLQKSTFDEKEDKGLDCWKLNSRVRDQFLPLVKEDTKKILAKVAEEIEKTTILDWKLPGMLPIQ | not soluble
MGSDKIHHHHHHMVSKYHEIFLNIIQQIEDGQLKRGDKLPSIRQLSQDFHCSKDTVQKALSELKYQKYIYPILKSGYYVFEDNHEEEILPPISPSNYHNIAYEDFRTCMNETLVGREDYLFNYYHQEEGLEELTQSLQALFVDEAIYSKKENIVVTSGSQQALYILSQMTFPNQKEIILLEQPTYHRMNTLVKSQNLPYLTIERGFDGLDFNRLEEIFKQEKIKFFYTIPRLSNPLGLSYSHKEKQTLVELAHKYDVYIIEDDYMADFDRASNVSLHYLDTNDRIIYLKSFSMSLFPALRLGSLILPKKLLKKFLDYKNLIDYDTNLIMQKALSLYIDNGMFAKNKKRLKQMYYQKTSELAKEFSTFTLKLPHHIFQDSLILQLPTKVNLALLKYRLNSPNFLEKNYISTCPYHFIQLQAGENWQNLLTIFE | not soluble
MGSDKIHHHHHHMITTWKHHETIEKAKRNAEQKIVSNVEHVEHIALVNQKRVLDAFKRKQVSEHHFTPSTGYGYDDLGRETLEAVYADVFGAETALVRPQIISGTHAIATVLFGLLRPGDELLYITGKPYDTLEEVIGIRGEEGGGSLKDFGITYHAVPLTAEQKVDKAAVKAAMNERTKVIGIQRSKGYADRPSFSINEIEQMVQFVKGINPNVIVFVDNCYGEFVEAKEPCHVGVDVIAGSLIKNPGGGIVKTGGYVAGKAPYVKQASYRLAAPGIGTEGGATLYSLLEMFQGLFLAPHVVSQAVKGAHFTAAFLDELGMRTSPRYDEQRTDLIQSVQFPDREKMIAFCQAIQAASPIDAHVTPQPSSMPGYEDPVIMAAGTFIQGASIELTADGPVRPPYIAYVQGGLTYEHVKLAVMQAADEMLSLETKGTPS | not soluble
MSTTFPLHTESFMLLDSGCLTNSDYFLPFALTDVLTTFSGMQHQPIIHFWQLDQAMILGMKDTRVPHLKEGIASLQENDYSVVVRNAGGLGVIADSGILNVSLILPNNSEHKLSIDAAYELMWAWLRQSFPEKEIDAFEITTSYCPGTYDLSIGGQKFAGIAQRRVKDGISVMIYISVNGNQLARGEVVRDFYLAGLQEQFGENGYPPVDPAVMANLETLIETPLTIDAVKTRLIEALPQQFEKSIDPNLTEPIITSEWFQTNLTVQLEKMAQRNALIKGEIL | not soluble
MILFDFKDLSAATSWYGVNDTVMGGLSRSKLTISPLGYGIFSGHVSLANGGGFASVRCEFEHVNVAEFTGIYLDLDSDRSKQYKVNLKDADTPQSTVYQAIMPAPTHQTFGLSGASAIHWQRIEIPFTNFHPQCRGKPIAGAAIDLRRLTSIGLVIGAQQSGDFALKIKSIGCYLEHHHHHH | soluble
TLAGRIVLVKIEPLSFSEFCKLKGHEVPYEKVAYARDILSPMLMEYIEKGGFPELVWENDPYKIRSYVRSIVIDRIVTRDIPQEFGIR | not soluble
